“Also recorded” adds a separate entry of the source.
Assays:
GnRH = test: anti-GnRH IgG endpoint titers by ELISA in sera of immunized mice; assay type: in vivo; conditions: BALB/cJ mice
Procedure: B-cell function: Standard ELISA was used to measure therapeutic efficacy by GnRH-specific antibody titer in the collected mouse sera. ELISA plates were coated with GnRH-BSA conjugate and 8 sequential 10-fold dilutions (from 1:10^3 to 1:10^10) of sera in blocking buffer were made and added to the ELISA plate wells. An HRP-labeled anti-mouse secondary antibody was added and the plates developed with a colorimetric substrate and measured in an ELISA plate reader. Data were plotted, curve fitted, and statistically analyzed using Prism Graph Pad software for calculating mid- and end-point titers.
(§1) Constructs 1-7 (1 and 10 ug) were adjuvanted with a monophosphoryl lipid-A/squalene-based adjuvant and injected into BALB/cJ mice. Each construct is injected into 5 mice (n=5 per construct). After 14, 28, and 42 days, mouse sera were obtained to measure anti-GnRH IgG endpoint titers by ELISA using dilutions from […] (sequential 10-fold dilutions). […] Testosterone was extracted from the sera, derivatized, and separated and quantified by LC-MS/MS.
The solid line in the group of dots is the geometric mean and the error bars are the geometric standard deviation. Two doses were chosen for this study: 1 and 10 ug. IgG titers reached maximum levels 42 days following prime immunization.

testosterone = test: serum testosterone by LC-MS/MS in immunized mice; assay type: in vivo; conditions: BALB/cJ mice
Procedure: as §1
A castrate T level is shown by the dotted line.

Molecule | anti-GnRH IgG antibody titers, 1 ug versus 10 ug dose (GnRH; 1 and 10 ug, monophosphoryl lipid-A/squalene-based adjuvant, FIG. 3) | anti-GnRH IgG antibody titers, rank among the constructs (GnRH; FIG. 3, listed as TCE3-Hex-TCE4+GnRH) | inducing IgG titers compared with KLH+GnRH (positive control) (GnRH; FIGS. 4-6) | anti-GnRH IgG titers, d28 versus d42 (GnRH; days post-prime immunization, FIG. 3) | inducing castrate levels of T compared with KLH+GnRH (positive control) (testosterone; FIGS. 4-6) | testosterone (T) levels induced (testosterone; by d42, FIG. 6) | anti-GnRH IgG antibody titers, rank among the constructs (GnRH; FIG. 3)
construct 2: GnRH peptide immunogen (SEQ ID NO: 70) conjugated to the TCE3-Hex-TCE4 hexamer scaffold peptide (SEQ ID NO: 68) (conjugate, conjugated; GnRH; TCE3_Hex_TCE4) chain 1: QHWSYGLRPGDGEGC chain 2: GQEAFSHIRIPLPHDIRSIGKEIRSIGREIRSIGKEIRSIGREFQDAYNAAGGHNAVF | equal antibody titers at both 1 and 10 ug | highest antibody titers; also recorded: highest titers or induced high titers sooner | about the same as KLH+GnRH | almost equal levels between d28 and d42 | about the same as KLH+GnRH | castrate levels of T | 
construct 5: scaffold peptide (SEQ ID NO: 67): GnRH peptide and TCE2 at N- and C-terminus of the monomeric peptide, self-assembled (also: self-assembled) GQHWSYGLRPGGDIRSIGKEIRSIGREIKSIGREIRSIGRGPGPFNNFTVSFWLRVPRVSASHLEQY |  |  |  |  |  |  | highest titers or induced high titers sooner

From patent US12648985B2, “Immunotherapeutic for prostate cancer treatment” (Hexamer Therapeutics, Inc., priority 2019, dated 2026)
